This note sets out measurements from patent US20090203766, “vWF aptamer formulations and methods for use” (Archemix Corp., published 2009).

Data set [1] deals with von Willebrand factor (vWF) (Homo sapiens, UniProt P04275 P04275:764-2813). Nature of the data set: filter; text gives value as affinity of ARC1779 for vWF; PBS, 0.1 mg/ml BSA, room temperature 30 min. As to conditions: label: 5'-32P. The procedure:
For binding assays, the oligonucleotide core of ARC1779 was synthesized with a 5′-terminal hydroxyl moiety instead of a 5′ hexylamine and 20 kDa PEG and subsequently 5′-end labeled with γ-³²P ATP using T4 polynucleotide kinase (New England BioLabs, Beverly, Mass.). Aptamer was incubated at room temperature for 30 minutes in PBS containing 0.1 mg/ml BSA (as a specificity control) and increasing concentrations of human VWF. Bound complexes were separated from free DNA using an acrylic mini-dot blot apparatus (Schleicher and Schuell, Keene, N.H.) and a membrane sandwich (top to bottom) of Protran BA85 0.45 μm Nitrocellulose Membrane (Schleicher and Schuell, Keene, N.H.), Hybond P Nylon Membrane (Amersham, Piscataway, N.J.), and 3mM filter paper (Whatman, Florham Park, N.J.) all pre-wet with Dulbecco's PBS. Radioactivity associated with protein:DNA complexes (nitrocellulose) and free DNA (nylon) was quantified on a Storm 860 Phosphorimager (Molecular Dynamics/Amersham, Piscataway, N.J.). Binding constants were determined by fitting the fraction of aptamer bound as a function of the concentration of vWF.

The target in data set [2] is von Willebrand factor (vWF), A1 domain sites in plasma/blood (Homo sapiens, UniProt P04275 P04275:764-2813). In words: free vWF A1 sites activity ELISA, plasma after dosing of healthy volunteers, Emax fit; 0.22 ug/mL; EC90 151 nM. As to conditions: protein: extract.
von Willebrand factor (vWF), A1 domain sites in plasma/blood, sequence (P04275 764-2813, one chain of several): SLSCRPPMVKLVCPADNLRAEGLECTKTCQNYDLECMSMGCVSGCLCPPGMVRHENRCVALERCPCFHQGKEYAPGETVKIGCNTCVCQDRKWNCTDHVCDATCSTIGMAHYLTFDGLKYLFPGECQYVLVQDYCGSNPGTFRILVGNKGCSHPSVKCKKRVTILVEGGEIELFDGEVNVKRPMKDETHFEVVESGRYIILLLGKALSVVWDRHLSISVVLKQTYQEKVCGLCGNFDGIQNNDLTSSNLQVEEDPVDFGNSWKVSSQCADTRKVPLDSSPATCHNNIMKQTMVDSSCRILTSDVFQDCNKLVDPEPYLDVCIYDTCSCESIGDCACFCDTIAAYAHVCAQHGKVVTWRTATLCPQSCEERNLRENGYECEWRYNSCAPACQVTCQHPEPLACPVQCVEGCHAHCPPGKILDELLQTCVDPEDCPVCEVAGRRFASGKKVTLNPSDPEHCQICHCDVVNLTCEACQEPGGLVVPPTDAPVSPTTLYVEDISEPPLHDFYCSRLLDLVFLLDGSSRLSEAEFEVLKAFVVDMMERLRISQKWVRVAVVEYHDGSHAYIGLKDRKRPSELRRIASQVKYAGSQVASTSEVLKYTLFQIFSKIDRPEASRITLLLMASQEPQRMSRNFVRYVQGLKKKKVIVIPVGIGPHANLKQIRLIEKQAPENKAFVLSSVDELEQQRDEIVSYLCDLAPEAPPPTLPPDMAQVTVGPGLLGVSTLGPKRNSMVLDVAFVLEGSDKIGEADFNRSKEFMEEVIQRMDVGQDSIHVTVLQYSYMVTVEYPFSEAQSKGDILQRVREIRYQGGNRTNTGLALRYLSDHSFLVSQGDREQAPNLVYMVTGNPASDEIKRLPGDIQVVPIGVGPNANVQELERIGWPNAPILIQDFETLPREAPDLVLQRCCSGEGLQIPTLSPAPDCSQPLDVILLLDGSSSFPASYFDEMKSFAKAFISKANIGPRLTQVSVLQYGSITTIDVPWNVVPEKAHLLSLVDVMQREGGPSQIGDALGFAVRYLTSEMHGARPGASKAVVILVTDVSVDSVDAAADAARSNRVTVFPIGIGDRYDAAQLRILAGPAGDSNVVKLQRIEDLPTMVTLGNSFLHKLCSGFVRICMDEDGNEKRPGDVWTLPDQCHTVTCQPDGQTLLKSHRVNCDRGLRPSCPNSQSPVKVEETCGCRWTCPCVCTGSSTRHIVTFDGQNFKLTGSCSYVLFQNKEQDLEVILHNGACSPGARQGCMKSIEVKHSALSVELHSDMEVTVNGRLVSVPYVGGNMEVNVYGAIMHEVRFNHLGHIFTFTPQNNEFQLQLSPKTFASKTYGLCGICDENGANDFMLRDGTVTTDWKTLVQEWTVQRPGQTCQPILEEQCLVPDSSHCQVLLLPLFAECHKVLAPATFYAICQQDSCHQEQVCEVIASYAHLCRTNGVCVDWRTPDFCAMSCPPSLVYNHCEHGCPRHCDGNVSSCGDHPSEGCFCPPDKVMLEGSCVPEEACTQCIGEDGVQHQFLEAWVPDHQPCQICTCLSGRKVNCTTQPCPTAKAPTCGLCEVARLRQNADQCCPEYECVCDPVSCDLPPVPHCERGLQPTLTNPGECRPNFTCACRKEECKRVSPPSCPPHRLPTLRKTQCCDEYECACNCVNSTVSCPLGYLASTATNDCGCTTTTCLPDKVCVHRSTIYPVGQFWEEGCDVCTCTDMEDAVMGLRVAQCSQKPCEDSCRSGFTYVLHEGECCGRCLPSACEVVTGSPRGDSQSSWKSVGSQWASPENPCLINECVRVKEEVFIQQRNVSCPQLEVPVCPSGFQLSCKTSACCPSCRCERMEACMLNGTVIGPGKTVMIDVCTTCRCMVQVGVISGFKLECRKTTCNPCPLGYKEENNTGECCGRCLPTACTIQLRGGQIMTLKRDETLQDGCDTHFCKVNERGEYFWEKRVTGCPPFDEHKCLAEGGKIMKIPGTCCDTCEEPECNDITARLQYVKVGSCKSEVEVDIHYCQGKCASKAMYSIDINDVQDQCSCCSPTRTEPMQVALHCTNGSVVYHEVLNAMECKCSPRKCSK

von Willebrand factor (vWF), sequence (P04275 764-2813, one chain of several): as above

B1: ARC1779 oligonucleotide core (no PEG) (mixed)
mixed: GCGUGCAGUGCCUUCGGCCGTGCGGTGCCUCCGUCACGC
modifications: same 2'-OMe/deoxy/PS/3'-inverted dT pattern as ARC1779, 5'-OH instead of hexylamine-PEG
As for B1, the Kd in data set [1] was roughly 2 nM.

B2: ARC1779 (mixed)
mixed: B1 mixed
modifications: mGmCmGmUdGdCdAmGmUmGmCmCmUmUmCmGmGmCdCmG-s-dTmGdCdGdGdTmGmCdCmUdCdCmGmUdCmAmCmGmC-3T (m 2'-OMe; d deoxy; s PS; 3T inverted dT), 5'-20 kDa PEG
Take B2: in data set [2], it took 17 nM to reach a half-maximal effect (EC50). That is a double-digit nanomolar value.
